According to the supplement of paper PMC11136658:

System: peptide library, one residue held at a place counted from the Y acceptor
Assay: relative phosphorylation of the sub-library (ratio to the mean residue at this position); higher = residue favoured
In short: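 Every value reflects phosphorylation relative to the mean randomized residue. The sum of the 18 randomized residues, or 16 in the Ser/Thr-free library, served to normalize intensities at each position, which were then multiplied by that number. Intensities came from phosphorimaging with ImageQuant of biotinylated Tyr-centred peptides captured on streptavidin membranes after 90 min with purified recombinant kinases and 50 μM ATP plus γ-32P-ATP.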

Chain of EPHA5, construct: aa662-948, human (P54756 662-948, looked up): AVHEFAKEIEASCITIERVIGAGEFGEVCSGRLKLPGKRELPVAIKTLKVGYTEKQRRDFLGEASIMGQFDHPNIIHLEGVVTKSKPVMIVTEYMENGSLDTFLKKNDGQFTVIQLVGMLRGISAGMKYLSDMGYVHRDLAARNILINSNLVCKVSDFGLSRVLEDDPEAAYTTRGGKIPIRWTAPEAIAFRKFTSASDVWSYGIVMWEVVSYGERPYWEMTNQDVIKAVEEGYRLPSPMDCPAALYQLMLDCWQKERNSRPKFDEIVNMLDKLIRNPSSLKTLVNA

“EPHA5, construct: aa662-948, human (from UniProt P54756)” was tested, and the relative phosphorylation (A fixed, at +1) was 1.5, the relative phosphorylation (A fixed, at +2) was 0.555 and the relative phosphorylation (A fixed, at +3) was 0.644. It also gave a relative phosphorylation (A fixed, at +4) of 0.75, a relative phosphorylation (A fixed, at +5) of 1 and a relative phosphorylation (A fixed, at -1) of 0.44. It also gave a relative phosphorylation (A fixed, at -2) of 1.06, a relative phosphorylation (A fixed, at -3) of 0.741 and a relative phosphorylation (A fixed, at -4) of 1.03. It also gave a relative phosphorylation (A fixed, at -5) of 0.879, a relative phosphorylation (D fixed, at +1) of 1.25 and a relative phosphorylation (D fixed, at +2) of 1.88. For the same substance, the relative phosphorylation (D fixed, at +3) was 0.493, the relative phosphorylation (D fixed, at +4) was 1.3 and the relative phosphorylation (D fixed, at +5) was 1.25. It also gave a relative phosphorylation (D fixed, at -1) of 2.92, a relative phosphorylation (D fixed, at -2) of 1.34 and a relative phosphorylation (D fixed, at -3) of 1.4. The relative phosphorylation (D fixed, at -4) was 1.22, the relative phosphorylation (D fixed, at -5) was 1.11 and the relative phosphorylation (E fixed, at +1) was 3.4. The relative phosphorylation (E fixed, at +2) was 2.46, the relative phosphorylation (E fixed, at +3) was 0.463 and the relative phosphorylation (E fixed, at +4) was 1.35. For the same substance, the relative phosphorylation (E fixed, at +5) was 1.27, the relative phosphorylation (E fixed, at -1) was 1.59 and the relative phosphorylation (E fixed, at -2) was 1.56. For the same substance, the relative phosphorylation (E fixed, at -3) was 1.74, the relative phosphorylation (E fixed, at -4) was 1.5 and the relative phosphorylation (E fixed, at -5) was 1.07. For the same substance, the relative phosphorylation (F fixed, at +1) was 0.713, the relative phosphorylation (F fixed, at +2) was 1.41 and the relative phosphorylation (F fixed, at +3) was 1.41. The relative phosphorylation (F fixed, at +4) was 1.07, the relative phosphorylation (F fixed, at +5) was 1.01 and the relative phosphorylation (F fixed, at -1) was 1.03. The relative phosphorylation (F fixed, at -2) was 0.671, the relative phosphorylation (F fixed, at -3) was 1.35 and the relative phosphorylation (F fixed, at -4) was 1.11. It also gave a relative phosphorylation (F fixed, at -5) of 1.06, a relative phosphorylation (G fixed, at +1) of 0.825 and a relative phosphorylation (G fixed, at +2) of 0.275. The relative phosphorylation (G fixed, at +3) was 0.426, the relative phosphorylation (G fixed, at +4) was 1.21 and the relative phosphorylation (G fixed, at +5) was 1.2. It also gave a relative phosphorylation (G fixed, at -1) of 0.215, a relative phosphorylation (G fixed, at -2) of 1.14 and a relative phosphorylation (G fixed, at -3) of 0.85. The relative phosphorylation (G fixed, at -4) was 1.18, the relative phosphorylation (G fixed, at -5) was 1.14 and the relative phosphorylation (H fixed, at +1) was 0.529. For the same substance, the relative phosphorylation (H fixed, at +2) was 0.834, the relative phosphorylation (H fixed, at +3) was 0.862 and the relative phosphorylation (H fixed, at +4) was 1.2. For the same substance, the relative phosphorylation (H fixed, at +5) was 0.903, the relative phosphorylation (H fixed, at -1) was 0.651 and the relative phosphorylation (H fixed, at -2) was 0.89. For the same substance, the relative phosphorylation (H fixed, at -3) was 1.03, the relative phosphorylation (H fixed, at -4) was 1.02 and the relative phosphorylation (H fixed, at -5) was 1.08. The relative phosphorylation (I fixed, at +1) was 1.05, the relative phosphorylation (I fixed, at +2) was 0.877 and the relative phosphorylation (I fixed, at +3) was 2.62. The relative phosphorylation (I fixed, at +4) was 0.716, the relative phosphorylation (I fixed, at +5) was 0.778 and the relative phosphorylation (I fixed, at -1) was 1.83. It also gave a relative phosphorylation (I fixed, at -2) of 0.725, a relative phosphorylation (I fixed, at -3) of 0.845 and a relative phosphorylation (I fixed, at -4) of 0.83. The relative phosphorylation (I fixed, at -5) was 0.973, the relative phosphorylation (K fixed, at +1) was 0.174 and the relative phosphorylation (K fixed, at +2) was 0.329. It also gave a relative phosphorylation (K fixed, at +3) of 0.218, a relative phosphorylation (K fixed, at +4) of 0.638 and a relative phosphorylation (K fixed, at +5) of 0.64. For the same substance, the relative phosphorylation (K fixed, at -1) was 0.203, the relative phosphorylation (K fixed, at -2) was 0.779 and the relative phosphorylation (K fixed, at -3) was 0.604. The relative phosphorylation (K fixed, at -4) was 0.778, the relative phosphorylation (K fixed, at -5) was 0.921 and the relative phosphorylation (L fixed, at +1) was 0.847. It also gave a relative phosphorylation (L fixed, at +2) of 0.869, a relative phosphorylation (L fixed, at +3) of 1.85 and a relative phosphorylation (L fixed, at +4) of 0.707. The relative phosphorylation (L fixed, at +5) was 0.916, the relative phosphorylation (L fixed, at -1) was 1.74 and the relative phosphorylation (L fixed, at -2) was 0.789. It also gave a relative phosphorylation (L fixed, at -3) of 0.877, a relative phosphorylation (L fixed, at -4) of 1 and a relative phosphorylation (L fixed, at -5) of 0.983. The relative phosphorylation (M fixed, at +1) was 1.53, the relative phosphorylation (M fixed, at +2) was 0.976 and the relative phosphorylation (M fixed, at +3) was 1.37. For the same substance, the relative phosphorylation (M fixed, at +4) was 0.965, the relative phosphorylation (M fixed, at +5) was 0.97 and the relative phosphorylation (M fixed, at -1) was 0.815. It also gave a relative phosphorylation (M fixed, at -2) of 0.604, a relative phosphorylation (M fixed, at -3) of 0.935 and a relative phosphorylation (M fixed, at -4) of 0.891. For the same substance, the relative phosphorylation (M fixed, at -5) was 1.02, the relative phosphorylation (N fixed, at +1) was 0.48 and the relative phosphorylation (N fixed, at +2) was 1.18. For the same substance, the relative phosphorylation (N fixed, at +3) was 0.477, the relative phosphorylation (N fixed, at +4) was 0.805 and the relative phosphorylation (N fixed, at +5) was 0.906. For the same substance, the relative phosphorylation (N fixed, at -1) was 2.59, the relative phosphorylation (N fixed, at -2) was 1.28 and the relative phosphorylation (N fixed, at -3) was 1.12. It also gave a relative phosphorylation (N fixed, at -4) of 0.966, a relative phosphorylation (N fixed, at -5) of 1.11 and a relative phosphorylation (P fixed, at +1) of 0.144. The relative phosphorylation (P fixed, at +2) was 0.481, the relative phosphorylation (P fixed, at +3) was 1.39 and the relative phosphorylation (P fixed, at +4) was 1.19. It also gave a relative phosphorylation (P fixed, at +5) of 1.53, a relative phosphorylation (P fixed, at -1) of 0.333 and a relative phosphorylation (P fixed, at -2) of 1.21. The relative phosphorylation (P fixed, at -3) was 0.953, the relative phosphorylation (P fixed, at -4) was 1.16 and the relative phosphorylation (P fixed, at -5) was 0.983. For the same substance, the relative phosphorylation (Q fixed, at +1) was 1.31, the relative phosphorylation (Q fixed, at +2) was 0.857 and the relative phosphorylation (Q fixed, at +3) was 0.867. It also gave a relative phosphorylation (Q fixed, at +4) of 1.01, a relative phosphorylation (Q fixed, at +5) of 0.961 and a relative phosphorylation (Q fixed, at -1) of 0.465. For the same substance, the relative phosphorylation (Q fixed, at -2) was 1.23, the relative phosphorylation (Q fixed, at -3) was 0.966 and the relative phosphorylation (Q fixed, at -4) was 1.2. It also gave a relative phosphorylation (Q fixed, at -5) of 1.18, a relative phosphorylation (R fixed, at +1) of 0.224 and a relative phosphorylation (R fixed, at +2) of 0.47. For the same substance, the relative phosphorylation (R fixed, at +3) was 0.35, the relative phosphorylation (R fixed, at +4) was 0.832 and the relative phosphorylation (R fixed, at +5) was 0.763. The relative phosphorylation (R fixed, at -1) was 0.232, the relative phosphorylation (R fixed, at -2) was 0.883 and the relative phosphorylation (R fixed, at -3) was 0.751. It also gave a relative phosphorylation (R fixed, at -4) of 0.885, a relative phosphorylation (R fixed, at -5) of 0.968 and a relative phosphorylation (S fixed, at +1) of 0.756. It also gave a relative phosphorylation (S fixed, at +2) of 0.622, a relative phosphorylation (S fixed, at +3) of 0.514 and a relative phosphorylation (S fixed, at +4) of 0.925. It also gave a relative phosphorylation (S fixed, at +5) of 1.04, a relative phosphorylation (S fixed, at -1) of 0.437 and a relative phosphorylation (S fixed, at -2) of 1.39. The relative phosphorylation (S fixed, at -3) was 0.868, the relative phosphorylation (S fixed, at -4) was 0.749 and the relative phosphorylation (S fixed, at -5) was 0.822. It also gave a relative phosphorylation (T fixed, at +1) of 0.62, a relative phosphorylation (T fixed, at +2) of 0.772 and a relative phosphorylation (T fixed, at +3) of 0.563. The relative phosphorylation (T fixed, at +4) was 0.937, the relative phosphorylation (T fixed, at +5) was 0.859 and the relative phosphorylation (T fixed, at -1) was 0.924. For the same substance, the relative phosphorylation (T fixed, at -2) was 0.885, the relative phosphorylation (T fixed, at -3) was 0.893 and the relative phosphorylation (T fixed, at -4) was 0.64. The relative phosphorylation (T fixed, at -5) was 0.824, the relative phosphorylation (V fixed, at +1) was 1.5 and the relative phosphorylation (V fixed, at +2) was 0.912. It also gave a relative phosphorylation (V fixed, at +3) of 1.95, a relative phosphorylation (V fixed, at +4) of 0.729 and a relative phosphorylation (V fixed, at +5) of 0.802. The relative phosphorylation (V fixed, at -1) was 0.932, the relative phosphorylation (V fixed, at -2) was 0.829 and the relative phosphorylation (V fixed, at -3) was 0.806. It also gave a relative phosphorylation (V fixed, at -4) of 0.776, a relative phosphorylation (V fixed, at -5) of 0.757 and a relative phosphorylation (W fixed, at +1) of 1.15. The relative phosphorylation (W fixed, at +2) was 2.25, the relative phosphorylation (W fixed, at +3) was 1.52 and the relative phosphorylation (W fixed, at +4) was 1.68. It also gave a relative phosphorylation (W fixed, at +5) of 1.2, a relative phosphorylation (W fixed, at -1) of 0.662 and a relative phosphorylation (W fixed, at -2) of 0.729. For the same substance, the relative phosphorylation (W fixed, at -3) was 1.29, the relative phosphorylation (W fixed, at -4) was 1.05 and the relative phosphorylation (W fixed, at -5) was 1.12. The relative phosphorylation (pThr fixed, at +1) was 1.77, the relative phosphorylation (pThr fixed, at +2) was 2.65 and the relative phosphorylation (pThr fixed, at +3) was 0.559. The relative phosphorylation (pThr fixed, at +4) was 1.37, the relative phosphorylation (pThr fixed, at +5) was 1.06 and the relative phosphorylation (pThr fixed, at -1) was 1.87. It also gave a relative phosphorylation (pThr fixed, at -2) of 1.13, a relative phosphorylation (pThr fixed, at -3) of 0.996 and a relative phosphorylation (pThr fixed, at -4) of 0.952. The relative phosphorylation (pThr fixed, at -5) was 0.917, the relative phosphorylation (pTyr fixed, at +1) was 2.61 and the relative phosphorylation (pTyr fixed, at +2) was 6.1. It also gave a relative phosphorylation (pTyr fixed, at +3) of 1.08, a relative phosphorylation (pTyr fixed, at +4) of 1.72 and a relative phosphorylation (pTyr fixed, at +5) of 1.61. For the same substance, the relative phosphorylation (pTyr fixed, at -1) was 2.82, the relative phosphorylation (pTyr fixed, at -2) was 1.52 and the relative phosphorylation (pTyr fixed, at -3) was 1.25. The relative phosphorylation (pTyr fixed, at -4) was 1.29 and the relative phosphorylation (pTyr fixed, at -5) was 1.15.
